From patent US20180021429A1, “ANTICANCER AGENTS OR ANTIMETASTATIC AGENTS USING FSTL1 AND COMBINATION DRUG THEREOF” (PHARMA FOODS INTERNATIONAL CO., LTD., priority 2015, published 2018)
Numbering of substitutions follows the chain as printed.

Test system: GFP-positive and Snail-positive B16-F10 tumor cells
Assay: In vivo, intratumoral administration, Snail-positive B16-F10 bone metastasis model (Example 17)
Parameters: species or system mouse
Conditions: intratumoral 200 μg/0.1 mL/tumor on day 7; day 14
Text: Three antibodies were comparatively analyzed for their antitumor effects and an immunosuppression-mitigating effect using bone metastasis models in which mouse melanoma cells B16-F10 forced to express Snail were subcutaneously and intravenously transplanted in C57BL/6N mice.
1. Experiment Group (n=5) • 1. No treatment • 2. Control IgG (anti-DNP) • 3. Anti-FSTL1 Clone #6-55 • 4. Anti-FSTL1 Clone #7-34 • 5. Anti-FSTL1 Clone #8-1
• Day 0: transplantation of GFP-positive and Snail-positive B16-F10 tumor cells (5×10^5 cells subcutaneously & 1×10^5 cells intravenously) • Day 7: intratumoral administration of the antibody (200 μg/0.1 mL/tumor) • Day 14: various assays (with a focus on flow cytometry analysis)
• Effects on the growth of subcutaneous tumor (calculation of tumor volume by tumor size measurement): measured 7, 11, and 14 days after tumor implantation (FIG. 41C) • Effects on bone metastasis (GFP-positive tumor cells in bone marrow) (FIG. 41A) • Effects on the expansion of mesenchymal stem cells (CD45-negative cells in bone marrow and in the spleen) (FIGS. 41B and 41D) • Effects on the expansion of immunosuppressive Treg cells (CD4-positive and Foxp3-positive cells in bone marrow or the spleen) (FIG. 41D) • Other immunosuppressive properties (FIG. 41D)
In order to evaluate in vivo antibody activity, antitumor effects and immunosuppression-mitigating effects were comparatively analyzed using bone metastasis models in which mouse melanoma cells ([…]) forced to express Snail were subcutaneously and intravenously transplanted in C57BL/6N mice. […]
It is known that when Snail-positive tumor cells are subcutaneously or intravenously transplanted to mice, the tumor metastasizes preferentially to bone marrow in addition to various organs, and this incurs the expansion of mesenchymal stem cells (MSCs) originating in the bone marrow, thereby systemically and strongly suppressing the induction of antitumor immunity (Cancer Research 73: 6185, 2013). […] The percentage (%) of CD45^− cells in the bone marrow cells was analyzed by flow cytometry. […]

B1: #6-55: chicken-mouse chimeric anti-FSTL1 antibody clone; variable regions SEQ ID NO: 783 (light), 785 (heavy) (antibody, V domains shown)
VH: AVTLDESGGGLQTPGGALSLVCKGSGFTFTSVTMQWVRQAPGKGLEWVASVCSGSSTYYAPAVKGRATISRDNGQSTVRLQLSNLRPEDTGTYYCAKIAGRARWSCTSAAYNIDAWGHGTEVIVSS
VL: ASTQPSSVSAIPGETVKITCSGGGNNYGWYQQRSPGSAPVTVIYYNDNRPSNIPSRFSGSTSGSTSTLTITGVQADDEAIYYCGSWDSNTDSGIFGAGTTLTVL
modifications: mouse constant regions
- bone metastasis (GFP-positive tumor cells in bone marrow): suppressed

B2: #7-34: chicken-mouse chimeric anti-FSTL1 antibody clone; variable regions SEQ ID NO: 787 (light), 789 (heavy) (antibody, V domains shown)
VH: AVTLDESGGGLQTPGGGLSLVCKASGFTFSSVTMQWVRQAPGKGLEWVASICSGSSTYYGPAVKGRATISRDNGQNTVRLQLNNLRAEDTATYYCAKIVGRGRWSCTSAAYNIDAWGHGTEVIVSS
VL: B1 VL with I11N, R33K, D47N, D76E, I80V, W86Y, D87E, S88G, N89S
modifications: mouse constant regions
- bone metastasis (GFP-positive tumor cells in bone marrow): no suppressive effect was seen

B3: #8-1: chicken-mouse chimeric anti-FSTL1 antibody clone; variable regions SEQ ID NO: 791 (light), 793 (heavy) (antibody, V domains shown)
VH: AVTLDESGGGLQTPGGALSLVCKGSGFTFSSFNMFWVRQAPGKGLEWVAGIGKDGVPKYGAAVDGRATISKDNGQSTMRLQLNNLRAEDTGTYFCAKAAGGCSYDWCGIYAGDIDTWGHGTEVIVSS
VL: ASTQPSSVSANPGEAVKITCSGGSGSYYGWYQQKSPGSAPVTVIYNNNQRPSDIPSRFSGSKSGSTATLTITGVQAEDEAVYFCGGYDSSSGHGGIFGAGTTLTVL
modifications: mouse constant regions
- bone metastasis (GFP-positive tumor cells in bone marrow): suppressed
